Test results taken from paper PMC12657230.

Target: ECOR31 mCpol (minimal CRISPR polymerase) with residual ENLYFQ cleavage site (E. coli ECOR31)
Experiment: SEC; HiLoad 16/600 Superdex 200 pg, 20 mM Tris-HCl pH 8.0, 500 mM KCl, 10% glycerol, 1 mM TCEP; elution compared with a molecular weight standard

stoichiometry N: 2
Substance: ECOR31 mCpol (minimal CRISPR polymerase) with residual ENLYFQ cleavage site (enzyme)
